# Data published in patent US20140193401A1.
# What was measured:
# [1] = target: PTx-S1-220 R79A (Bordetella pertussis) (UniProt P04977)
# [2] = target: PTx-S1-220 R79A (Bordetella pertussis) (UniProt P04977); experiment: ELISA, hu1B7 as primary antibody; EC50 as percent of the PTx reference
# [3] = target: PTx-S1E (residues 1-220, D34E, S162P, I198M) (Bordetella pertussis) (UniProt Q7WDU8); experiment: SPR (BIAcore 3000), mAb 1B7 immobilised on CM5 chip, toxin injected
# [4] = target: pertussis toxin holotoxin (Bordetella pertussis) (UniProt P04977); experiment: cell-based or functional assay
# [5] = target: pertussis toxin holotoxin (Bordetella pertussis) (UniProt P04977); experiment: competition ELISA (Friguet), 5 nM antibody with PT in solution, coated PT
substance,measurement,setting,value
hu1B7 scAb (humanized 1B7 single-chain Fv with C-terminal human kappa constant domain) (scFv),% EC50 PTx,[1],1%
same,% EC50 PTX,[2],1%
murine monoclonal antibody 1B7,koff,[3],0.0018 s⁻¹
murine monoclonal antibody 11E6,"In Vitro Neutralization (nM), minimum protective concentration, CHO clustering assay",[4],5.2 nM
same,Kd,[5],20 nM
